We go through 1 protein from paper doi:10.1101/2020.05.29.124305 (bioRxiv, 2020).

In general, stoichiometry N refers to a count of units in the complex or per binding partner.

This data set deals with the molecule itself. Put plainly: cryo-EM structure.

B1: Human ASCT2 (Alanine-Serine-Cysteine Transporter 2, SLC1A5) (natural protein)
chain: MVADPPRDSKGLAAAEPTANGGLALASIEDQGAAAGGYCGSRDQVRRCLRANLLVLLTVVAVVAGVALGLGVSGAGGALALGPERLSAFVFPGELLLRLLRMIILPLVVCSLIGGAASLDPGALGRLGAWALLFFLVTTLLASALGVGLALALQPGAASAAINASVGAAGSAENAPSKEVLDSFLDLARNIFPSNLVSAAFRSYSTTYEERNITGTRVKVPVGQEVEGMNILGLVVFAIVFGVALRKLGPEGELLIRFFNSFNEATMVLVSWIMWYAPVGIMFLVAGKIVEMEDVGLLFARLGKYILCCLLGHAIHGLLVLPLIYFLFTRKNPYRFLWGIVTPLATAFGTSSSSATLPLMMKCVEENNGVAKHISRFILPIGATVNMDGAALFQCVAAVFIAQLSQQSLDFVKIITILVTATASSVGAAGIPAGGVLTLAIILEAVNLPVDHISLILAVDWLVDRSCTVLNVEGDALGAGLLQNYVDRTESRSTEPELIQVKSELPLDPLPVPTEEGNPLLKHYRGPAGDATVASEKESVM
As to B1, the “stoichiometry N” value stood at 3.
